From publication PMC4353693

Columns and labels:
[1] = target: C-terminally CFP-tagged P1aABD (P1aABD-CFP); assay: FRET or BRET
[2] = target: actin binding domain of plectin isoform 1a (P1aABD); assay: ITC
[3] = target: P1aABDΔ22; assay: ITC

FRET efficiency [1] | Kd [2] | Kd [3] | KD calculated with the competitive binding model [2] | apparent KD in the presence of β4Fn12 (displacement) [2] | Substance
19% | – | – | – | – | C-terminally yellow fluorescence protein (YFP)-tagged CaM (CaM-YFP) (from UniProt P0DP23 1-149) (natural protein)
– | 10.5 µM | – | – | – | N-ter lobe of calmodulin (CaMNL) (from UniProt P0DP23 10-74) (domain or fragment)
– | 4.2 µM | 2.6 µM | 2.3 µM | 7.7 µM | calmodulin (CaM), full length, with Ca2+ (from UniProt P0DP23 1-149) (natural protein)
